The conditions of the data set: Pseudomonas aeruginosa (strain ATCC 15692 / DSM 22644 / CIP 104116 / JCM 14847 / LMG 12228 / 1C / PRS 101 / PAO1), CD, HCl, whole UniProt chain shown.

The results in this text go back to FireProtDB (doi:10.1074/jbc.274.53.37533).

B1: Cytochrome c-551 wild type, P00099 (protein)
chain: MKPYALLSLLATGTLLAQGAWAEDPEVLFKNKGCVACHAIDTKMVGPAYKDVAAKFAGQAGAEAELAQRIKNGSQGVWGPIPMPPNAVSDDEAQTLAKWVLSQK
As for B1, where the note is “pH 5, 25 °C, GdnHCl”, the denaturant m value stood at 2.17 kcal/mol/M and the “denaturant midpoint (higher = more stable)” value came out at 2.25 M. Under “pH 5, Thermal”, the midpoint of thermal melting (Tm) amounted to 50.4 °C and the “unfolding enthalpy (van 't Hoff)” value amounted to 37.6 kcal/mol.
